In test [1] the target is T1, CD163 on peripheral blood dendritic cells (Homo sapiens, UniProt Q86VB7).
T1 construct: Freshly drawn peripheral whole blood samples or PBMC; endogenous in cells; host or cells: human peripheral blood monocytes, blood dendritic cells, monocyte-derived macrophages (healthy donors, buffy coats)
Description: Flow cytometry of CD163 expression on peripheral blood dendritic cells. The test is classed as cell-based. An excerpt: Freshly drawn peripheral whole blood samples (approx. 3×10^6 cells) were stained with isotype-matched control antibody (Mouse IgG1 PE, k isotype control, MOPC-21, BD Pharmingen™, San Diego, Calif., USA) or a relevant antibody (anti-CD3 FITC, UCHT1, BD Biosciences, San Diego, Calif., USA; anti-CD11c FITC, KB90, DAKO A/S, Glostrup, Denmark; anti-CD14 FITC, RM052, 10Tests®, Beckman and Coulter, Marseille, France; anti-CD16 FITC, 3G8, BD Biosciences, San Diego, Calif., USA; anti-CD19 FITC, SJ25C1, BD Biosciences, San Diego, Calif., USA; anti-CD20 FITC, CAT 13.6E12, Diatec.com A/S, Oslo, Norway; anti-CD56 FITC, NCAM16.2, BD Biosciences, San Diego, Calif., USA; anti-CD91 FITC, A2MR-a2, BD Biosciences, San Diego, Calif.; anti-HLA-DR FITC, EDU-1, Diatec.com A/S, Oslo, Norway; anti-CD163 PE, MAC2-158, IQ Products, Groningen, The Netherlands; anti-CD163 PE, GHI/61, BD Biosciences, CA, USA; anti-ILT3/CD85k PE-Cy5, ZM3.8, IOTests®, Beckman and Coulter, Marseille, France; anti-HLA-DR PerCP, L234, BD Biosciences, San Diego, Calif.; anti-CD4 APC, EDU-2, Diatec.com A/S, Oslo, Norway; anti-CD14 APC, 18D11, Diatec.com A/S, Oslo, Norway) for 15 minutes at room temperature in the dark. […] For CD163 density quantitation, flow cytometric estimation of antibodies bound/cell (ABCs) was performed using Quantibrite PE beads (Becton Dickinson, San Jose, Calif., USA) as recommended by the manufacturer. […]
Background: A flow cytometer gives signals particle by particle.

Test [2] addresses T2, human CD163 wt (Homo sapiens, UniProt Q86VB7).
T2 construct: a pcDNA5-FRT-humanCD163 plasmid harboring the full length human CD163 cDNA; expressed in transfected cells; host or cells: HEK 293, transient
Put plainly: Western blotting of human CD163 and knock out mutants. The class given is binding. As to the method:
Each cell pellet was added 1 ml lysis buffer (10 mM Tris pH 8, 140 mM NaCl, 15 mM MgSO4, 1% Triton X-100) and incubated for 15 min at 4 °C with rotation. After centrifugation for 30 min at 6000 rpm the supernatants were sterile filtered.
90 μl of each of the supernatants were added 30 μl of 4×LDS sample buffer. 3×20 μl samples of each supernatant and 8 μl SeeBlue plus2 prestained marker were loaded on NuPage 4-12% Bis-Tris-Gels (Invitrogen, Taastrup, Denmark) and the SDS-PAGEs were run with MOPS running buffer according to instructions of the manufacturer (200 V constant for 50 min). Blotting to PVDF membranes (Invitrogen, Taastrup, Denmark) was done on an iBLOT device according to instructions of the manufacturer. After blotting the membranes were washed briefly in 1×PBS 0.1% Tween and blocked for 30 min in 1×PBS 2% Tween at room temperature with shaking. After blocking the membranes were washed 3×5 min in 1×PBS 0.1% Tween and incubated 1 hour with: (1) 10 ml 1 μg/ml polyclonal rabbit anti-human CD163; (2) 10 ml 1 μg/ml Mac2-158; (3) 10 ml 1:500 KN2/NRY-HRP all diluted in 1×PBS 0.1% Tween. The membranes were washed with 3×5 min 1×PBS 0.1% Tween again and incubated with: (1) 10 ml Goat anti-rabbit-HRP 1:1000 (AbD Serotec, Oxford, UK); or (2) 10 ml Goat anti-mouse-HRP 1:1000 (Dako, Glostrup, Denmark) for 1 hour. […]
(In general: A western blot detects proteins with antibodies after separation by electrophoresis.)

T1 sequence (Q86VB7 42-1156): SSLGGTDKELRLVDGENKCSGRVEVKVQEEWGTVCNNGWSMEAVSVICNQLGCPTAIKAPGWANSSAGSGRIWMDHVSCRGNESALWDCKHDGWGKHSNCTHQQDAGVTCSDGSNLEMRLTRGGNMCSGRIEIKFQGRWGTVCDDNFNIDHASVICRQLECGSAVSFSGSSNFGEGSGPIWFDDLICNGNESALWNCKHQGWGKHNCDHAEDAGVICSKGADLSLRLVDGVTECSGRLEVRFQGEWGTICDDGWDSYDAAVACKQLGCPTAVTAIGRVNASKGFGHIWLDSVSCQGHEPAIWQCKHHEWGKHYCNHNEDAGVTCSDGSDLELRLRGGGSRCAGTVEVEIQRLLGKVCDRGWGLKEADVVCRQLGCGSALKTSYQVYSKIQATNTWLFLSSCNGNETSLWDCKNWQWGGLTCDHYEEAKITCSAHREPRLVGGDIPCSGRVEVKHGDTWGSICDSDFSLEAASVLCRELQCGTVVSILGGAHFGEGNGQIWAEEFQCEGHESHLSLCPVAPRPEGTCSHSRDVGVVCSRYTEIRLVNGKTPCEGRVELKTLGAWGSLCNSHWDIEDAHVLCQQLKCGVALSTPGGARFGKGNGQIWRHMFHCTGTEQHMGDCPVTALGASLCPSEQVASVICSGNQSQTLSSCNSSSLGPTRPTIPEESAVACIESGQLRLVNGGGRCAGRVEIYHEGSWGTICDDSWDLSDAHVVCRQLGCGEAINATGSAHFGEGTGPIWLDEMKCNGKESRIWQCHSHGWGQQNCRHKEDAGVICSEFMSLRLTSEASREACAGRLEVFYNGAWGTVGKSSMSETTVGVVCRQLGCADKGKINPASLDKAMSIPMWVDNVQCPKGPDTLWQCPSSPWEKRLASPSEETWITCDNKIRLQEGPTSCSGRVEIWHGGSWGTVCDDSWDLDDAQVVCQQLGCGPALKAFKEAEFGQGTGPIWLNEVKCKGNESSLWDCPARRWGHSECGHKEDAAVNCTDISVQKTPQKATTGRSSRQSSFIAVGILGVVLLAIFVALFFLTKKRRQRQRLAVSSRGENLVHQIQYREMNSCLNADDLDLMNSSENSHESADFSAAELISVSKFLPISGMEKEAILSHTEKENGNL
T2 sequence (Q86VB7 42-1156): as above

B1: MAC2-158: anti-human CD163 murine mAb, binds SRCR domain 1, IQ Products; VH SEQ ID NO: 1, VL SEQ ID NO: 2 (antibody, V domains shown)
VH: DVQLQESGPGLVKPSQSLSLTCTVTGYSITSDYAWNWIRQFPGNKLEWMGYITYSGITNYNPSLKSQISITRDTSKNQFFLQLNSVTTEDTATYYCVSGTYYFDYWGQGTTLTVSS
VL: SVVMTQTPKSLLISIGDRVTITCKASQSVSSDVAWFQQKPGQSPKPLIYYASNRYTGVPDRFTGSGYGTDFTFTISSVQAEDLAVYFCGQDYTSPRTFGGGTKLEIKRA
modifications: Mac2-158 VH; Mac2-158 VL
With B1, the “fraction of peripheral blood dendritic cells recognized (CD163 expressing)” value in test [1] (CD14-ILT3+HLA-DR+ cells, whole blood) turned out to be 32.3%. The “MFI, reflecting the amount of CD163 receptors per cell” value in test [1] (peripheral blood dendritic cells) was 107.5. Besides, the “binding in western blot” value in test [2] was “bound”.

The record behind these values is patent US20170119790A1, “Agents, Uses and Methods” (CYTOGUIDE A/S, priority 2009, published 2017).
